Measurements taken from patent publication EP4659811A1.
Numbering of substitutions follows the chain as printed.

B1: antibody C10P8 (antibody, V domains shown)
VH: QVQLQESGPGLVKPSQTLSLTCTVSGGSISSGRYYWSWIRQPAGKGLEWIGRVYFSGSTNYNPSLKNRVTLSVDTSKNQFSLKLSSVIAADTAVYYCARAVRDYGDSYSFDYWGQGTLVTVSS
VL: QSALTQPASVSGSPGQSITISCTGSSSDIGGYNYVSWYQVHPGKAPHLKIYDVVNRPSGVSNRFPGSKSGNTASLTISGLLADDEAYYYCCSYSIRGTPVFGGGTKLTVL
B2: antibody E10P5 (antibody, V domains shown)
VH: QVQLQESGPGLVKPSQTLSLTCSVSGGSISSGNYYWSWIRQPAGKGLEWIGRIYTSGNTNYNPSLKSRVTMSVDTSKNQFSLKLSSVTATDTAVYYCARVRRDGYNAFDYWGQGTLVTVSS
VL: SYELTQPPSVSVSPGQTASIDCSGHNLGDKFTCWYQQKPGQSPVLVIYQDSKRPSGIPERFSGSNSGNTATLTISGTQAMDEADYYCQAWDSDTLYVFGTGTTVTVL
B3: antibody C4P7 (antibody, V domains shown)
VH: EVQLLESGGGLVQPGGSLRLSCAASGFTFSSYAMSWVRQAPGKGLEWVSSLTGSGGSTYYRDSVKGRFTIFRDNSKKTLYMQMNSLRAEDTAVYYCAKEGAYSYDFWYFDLWGRGTLVTVSS
VL: EIVLTQSPGTLSLSPGERATLSCRASQTVSGNYLAWYQQKPGQSPSLLIYGASSRATGIPDRFTGSGSGTDFTLTISRLEPADFAVYYCQQYGRPLTFGGGTKVEIK
B4: antibody B7P3 (antibody, V domains shown)
VH: EVQLVESGGGVVQPGRSLRLSCAASGFTFSNFGMHWVRQPPGKGLEWVAVISYDGSDKFYADSVKGRFTISRDNFKNTLYVQMNSLRAEDTAVYYCAKDRVRTKYYYDHSGPFDYWGRGTLVTVSS
VL: SYVLTQPPSVSVAPGQTARIACGGNNIGSKSVHWYQQRPGQAPVLVVYDDDDRPSGIPERFSGSNSGNTATLTISRVEAGDEADYFCQVWMTNSDRPVFGGGTKLTVL
B5: antibody G7P3 (antibody, V domains shown)
VH: EVQLVESGGGLVQPGGSLRLSCAASGFSFGSYSMNWVRQAPGKGLEWVSHISSGSSSIYYADSVKGRFTISRDSVKNSLYLQMNNLRAEDTAVYYCARGWTGYDAFDIWGQGTMVTVSS
VL: DIQMTQSPSSLSASVGDRVTITCRASQVISNYLAWYQEKPGKVPKLLIYAASTLQSGVPSRFSGSGTGTDFTLTIRSLQPEDVATYYCQKYNNAPLTFGGGTKVEIK
B6: antibody E8P5 (antibody, V domains shown)
VH: B5 VH with Q13H, S28R, S31T, Y95F
VL: B5 VL with K42E, R76S

Key:
[1] = target: VP1 pentamer of BKV genotype IV (recombinant) (BK virus genotype IV), P14996; assay: ELISA, coated VP1 pentamer; settings: remark: other sources report otherwise
[2] = target: VP1 pentamer of BKV genotype II (recombinant) (BK virus genotype II), P14996; assay: ELISA, coated VP1 pentamer; settings: remark: other sources report otherwise

| Binder | EC50 [1] [mg/L] | EC50 [2] [mg/L] |
| --- | --- | --- |
| B1 | 10 | – |
| B2 | – | 0.065 |
| B3 | – | 5 |
| B4 | – | 5.5 |
| B5 | – | 0.04 |
| B6 | – | 0.08 |
